Results published in PMC9411612, “Single residue modulators of amyloid formation in the N-terminal P1-region of α-synuclein” (Nature Communications, 2022).

B1: P1-peptide (Ac-KTKE-GVLYVGS-KTKE-NH2) (peptide)
peptide: Ac-KTKEGVLYVGSKTKE-NH2
notes: also called peptide-P1; peptide P1; source: synthetic peptide, bought: Severn Biotech Ltd
B2: MTSL-labelled Cys-P1-peptide (Ac-C-KTKE-GVLYVGS-KTKE-NH2) (peptide)
peptide: CKTKEGVLYVGSKTKE
modifications: N-terminal acetylation; MTSL on the thiol group of the introduced N-terminal cysteine; C-terminal amidation
notes: cysteine introduced at the N-terminus for MTSL labelling; observed mass 1995.07 Da after labelling; also called MTSL-labelled peptide-P1; 14N P1-peptide N-terminally labelled with MTSL; source: synthetic peptide, bought: Severn Biotech Ltd; labelled with MTSL, reverse phase HPLC

Assays:
[1] = target: T1, ΔP1 αSyn (alpha-synuclein with residues 36-42 deleted) (UniProt P37840 1-140, deletion of the seven-residue P1 sequence 36GVLYVGS42 (ΔP1)); assay: native MS; native nESI-MS; 20 µM protein, αSyn:P1-peptide 1:10, 20 mM ammonium acetate pH 7.5; details: both partners purified
[2] = target: T2, wild-type alpha-synuclein (WT αSyn) (UniProt P37840 1-140); assay: as above; details: both partners purified
[3] = target: T1, ΔP1 αSyn (alpha-synuclein with residues …); assay: cell-based or functional assay
[4] = target: T1, ΔP1 αSyn (alpha-synuclein with residues …); assay: NMR paramagnetic relaxation enhancement (PRE); 100 µM 15N-labelled protein with 100 µM 14N MTSL-labelled peptide; diamagnetic spectra after 1 mM ascorbic acid; 20 mM Tris-HCl, pH 7.5, 200 mM NaCl, 15 °C; details: both partners purified
[5] = target: T2, wild-type alpha-synuclein (WT αSyn); assay: as above; details: both partners purified

Binder	stoichiometry N [1]	stoichiometry N [2]	t50 of amyloid formation (ThT fluorescence), 100 µM ΔP1 with P1-peptide in 10-fold molar excess, pH 7.5 (aggregation begins within 110 h at equimolar ratio) [3] [h]	binding result [4]	binding result [5]
B1	1	1	14.4		
B2				binds	binds
